Residue numbers refer to the chain shown, from its start.
B1: 1I14 (antibody, V domains shown)
VH: QSVEESGGRLVTPGTPLTLTCTISGFSLSSYAMSWVRQAPGKGLEWIGSIGGGGSAVYASWAKGRFTISKTSTTVDLRITSPTTEDTAMYFCGRGFYSIDLWGPGTLVTVSS
VL: DVVMTQTPASVEATVGGTVTIKCQSSQSVYDNNALAWYQQNAGQRPRLLIYGASTLASGVPSRFSASGSGTEFTLTISDLECADAATYYCQCTYYVSSYQNDFGGGTEVVVKG
notes: also called MAGE-B2 (1i14)
B2: 1C3 (antibody, V domains shown)
VH: QSLEESGGGLVQPEGSLTLTCTAFGVTLTNYYICWVRQAPGKGLEWVGCIDNANGRTYYASWAKGRFTISKTSSTTGTLQMTSLTAADTATYFCARSLATPLWGPGTLVTVSS
VL: DIVMTQTPSSVEAAVGGTVTIKCQASQNISSYLAWYQQKPGQPPKLLIYRASTLASGVPSRFKGSGSGTQFTLTISDLECADAATYYCQSYDDSRSSNFFYAFGGGTEVVVKG
notes: also called MAGE-B2 (IC3); anti-MAGEB2 antibody 1C3
B3: 4G17 (antibody, IgG1, V domains shown)
VH: B2 VH with F24S, T29S, V47I, A53V
VL: DIVMTQTPASVEAAVGGTVTIKCQASQNIDSYLAWYQQKPGQPPKLLIYRASTLASGVPSRFKGSGSGTEFTLTISDLECADAATYYCQSYDDSRSSSFFYGFGGGTEVVVK
notes: Rabbit monoclonal IgG1; Tested as supernatant and as small batch purified antibody; also called MAGE-B2 (4G17); anti-MAGEB2 antibody 4G17
B4: 1J15 (antibody, IgG1, V domains shown)
VH: B2 VH with V26F, T29N, V47I, G48A, G77V, A99S
VL: B3 VL with N28S, D30S, A34S, K63R, E70Q, R95S, S96D, S97N, S98N, K112R
notes: Rabbit monoclonal IgG1; Tested as supernatant and as small batch purified antibody; also called MAGE-B2 (IJ15); anti-MAGEB2 antibody 1J15

target: T1, Human MAGEB2 (Melanoma-associated antigen B2) (human, UniProt O15479 1-319); experiment: IHC on FFPE UACC-257 cells (endogenous MAGEB2)
T1 construct: Intracellular antigen detected by IHC in FFPE material: CHO cells transfected with human MAGEB2 (mCherry vector with Myc/DDK tags, or ORF without tags)
T1 sequence: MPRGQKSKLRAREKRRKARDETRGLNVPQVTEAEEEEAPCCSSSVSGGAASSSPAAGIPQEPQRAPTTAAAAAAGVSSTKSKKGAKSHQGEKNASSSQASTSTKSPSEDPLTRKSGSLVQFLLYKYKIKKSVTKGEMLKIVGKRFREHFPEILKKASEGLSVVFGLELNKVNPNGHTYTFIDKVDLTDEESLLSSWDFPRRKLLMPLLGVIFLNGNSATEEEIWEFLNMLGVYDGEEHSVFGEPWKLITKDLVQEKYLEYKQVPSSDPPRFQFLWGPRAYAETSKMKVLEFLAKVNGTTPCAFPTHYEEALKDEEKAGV
Protocol: (§1) FFPE samples were sectioned at 4 μm and mounted on positive charged glass slides. After mounting, paraffin sections were air-dried at room temperature. FFPE TMA samples were received as freshly sectioned and mounted on glass slides. The fully automated IHC assay was performed on a Discovery Ultra Stainer (Ventana Medical Systems, Tucson, AZ) using Ventana Anti-Rabbit HQ (cat #760-4815), Ventana Anti-HQ HRP (cat #760-4820), and Ventana Antibody Diluent with Casein (cat #760-219) (Ventana Medical Systems, Tucson, AZ). The slides were baked on the Discovery Ultra Stainer at 60° C. for 8 minutes, de-paraffinized with Ventana Discovery wash (cat #950-510) for 3 cycles (8 minutes each) at 69° C., and underwent cell conditioning (target retrieval) at 95° C. for 16 minutes (for cell arrays) or 32 minutes (tissues or TMAs) in CC1 buffer (cat #950-500). Following this, slides were incubated with Background Sniper (cat #BS966M, Biocare Medical, Pacheco, CA) in a Ventana Option Prep kit (cat #771-751) for 28 minutes, incubated with CM inhibitor (a part of the Ventana DAB kit cat #760-159) for 12 minutes, and incubated for 1 h at RT with MAGE-B2 antibody diluted with Ventana diluent with Casein in a Ventana Prep kit (cat #770-001) (working concentration at 0.1 μg/ml for cell pellet, or 1-5 ug/ml for tissues) or with a matched concentration of isotype control Rabbit IgG1 antibody. Following this, slides were incubated with the Ventana Anti-Rabbit HQ (cat #760-4815) for 28 minutes at RT, Ventana Anti-HQ HRP (cat #760-4820) for 28 minutes at RT, and signals detected with Ventana DAB chromogen kit (cat #760-159) for 5 minutes at RT. Slides were counterstained with Ventana Hematoxylin II (cat #5266726001) for 8 minutes and Ventana Bluing reagent (cat #526676900) for 4 minutes. Slides were coverslipped and digitized using an Aperio AT2 scanner (Leica Biosystems Inc, Buffalo Grove, IL).

Binder | IHC % Frequency | IHC Intensity
B1 | 0% | 
B2 | 0% | 
B3 | 0% | 0
B4 | 0% | 0

target: T2, human MAGEA11 (human, UniProt P43364 1-429); experiment: IHC, FFPE CHO cells transfected with human MAGEA11
T2 construct: whole, on cells; Transfected into CHO cells with Myc/DDK tags
T2 sequence (looked up): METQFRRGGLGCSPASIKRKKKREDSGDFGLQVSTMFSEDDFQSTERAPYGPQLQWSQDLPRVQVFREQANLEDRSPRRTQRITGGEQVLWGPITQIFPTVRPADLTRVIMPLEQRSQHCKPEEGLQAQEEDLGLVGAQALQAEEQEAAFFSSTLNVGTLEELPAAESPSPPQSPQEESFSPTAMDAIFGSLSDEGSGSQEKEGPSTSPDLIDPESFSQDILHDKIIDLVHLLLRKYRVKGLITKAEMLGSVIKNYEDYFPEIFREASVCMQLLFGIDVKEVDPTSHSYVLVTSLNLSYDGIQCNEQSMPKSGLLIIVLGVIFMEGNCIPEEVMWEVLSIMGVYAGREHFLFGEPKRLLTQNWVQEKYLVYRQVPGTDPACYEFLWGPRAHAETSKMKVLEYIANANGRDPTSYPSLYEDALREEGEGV
Protocol: as §1

Binder | binding result
B1 | no binding (tested: 0.1 µg/ml)
B2 | no binding (tested: 0.1 µg/ml)
B3 | no binding (tested: 0.1 µg/ml)
B4 | no binding (tested: 0.1 µg/ml)

target: T3, human MAGEB6 (human, UniProt Q8N7X4 1-407); experiment: IHC, FFPE CHO cells transfected with human MAGEB6
T3 construct: whole, on cells; FFPE cell pellets
T3 sequence (looked up): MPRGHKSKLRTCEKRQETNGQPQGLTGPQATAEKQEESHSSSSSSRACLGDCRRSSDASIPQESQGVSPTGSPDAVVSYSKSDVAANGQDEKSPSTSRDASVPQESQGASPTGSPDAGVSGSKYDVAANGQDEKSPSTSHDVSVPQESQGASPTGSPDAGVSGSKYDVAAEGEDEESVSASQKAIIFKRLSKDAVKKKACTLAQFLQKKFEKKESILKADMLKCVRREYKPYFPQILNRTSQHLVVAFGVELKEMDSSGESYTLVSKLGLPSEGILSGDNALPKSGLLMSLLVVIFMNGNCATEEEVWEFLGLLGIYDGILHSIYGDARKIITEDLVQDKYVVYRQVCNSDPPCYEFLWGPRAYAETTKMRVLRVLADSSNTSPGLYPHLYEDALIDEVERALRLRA
Protocol: as §1

Binder | binding result
B1 | no binding (tested: 0.1 µg/ml)
B2 | no binding (tested: 0.1 µg/ml)
B3 | no binding (tested: 0.1 µg/ml)
B4 | no binding (tested: 0.1 µg/ml)

target: T4, human MAGEA3 (human, UniProt P43357 1-314); experiment: IHC, FFPE CHO cells transfected with human MAGEA3
T4 construct: whole, on cells; FFPE cell pellets
T4 sequence (P43357 whole entry): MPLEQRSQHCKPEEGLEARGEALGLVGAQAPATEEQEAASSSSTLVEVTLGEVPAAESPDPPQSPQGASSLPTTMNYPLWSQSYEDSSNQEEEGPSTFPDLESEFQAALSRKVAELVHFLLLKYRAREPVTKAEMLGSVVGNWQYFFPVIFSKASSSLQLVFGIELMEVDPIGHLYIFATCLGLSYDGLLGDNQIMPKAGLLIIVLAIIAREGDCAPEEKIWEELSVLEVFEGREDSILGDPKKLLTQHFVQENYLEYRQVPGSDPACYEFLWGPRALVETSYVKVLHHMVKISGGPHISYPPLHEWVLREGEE
Protocol: as §1

Binder | binding result
B1 | no binding (tested: 0.1 µg/ml)
B2 | no binding (tested: 0.1 µg/ml)
B3 | no binding (tested: 0.1 µg/ml)
B4 | no binding (tested: 0.1 µg/ml)

target: T1, Human MAGEB2 (Melanoma-associated …); experiment: IHC on FFPE U266B1 cells (endogenous MAGEB2)
Protocol: as §1

Binder | IHC % Frequency | IHC Intensity
B1 | 90% | 3
B2 | 90% | 2
B3 | 80% | 2
B4 | 90% | 1
